Results: the supplement of paper PMC12764529
± gives the half width of the 95% confidence interval.

Experiments:
[1] = folding stability dG unfold from trypsin proteolysis; higher = more stable
How it was run: (§1)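 K50 was inferred by Bayesian fitting of sequencing counts obtained after protease digestion of designed mini-proteins. Unfolding free energy was derived by comparison with a sequence-predicted unfolded-state K50 and a shared folded-state K50, for each protease or both combined. The mini-proteins were under 80 residues, had no cysteine, were carried in a PA-tagged cDNA display construct, and were kept only if AlphaFold2 dimer inter-PAE exceeded 15.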

[2] = folding stability dG unfold from chymotrypsin proteolysis; higher = more stable
How it was run: as §1

[3] = folding stability dG unfold (combined trypsin and chymotrypsin); higher = more stable
How it was run: as §1

| Sequence | folding stability dG unfold [1] [kJ/mol] | folding stability dG unfold [2] [kJ/mol] | folding stability dG unfold [3] [kJ/mol] |
| --- | --- | --- | --- |
| SAGGSAGGSAGKVVLAKAKVTPPDGSEYEFDLAIEVPDDVVLVVGLHFDYPDQVDFVFEGSAGGSAGGSAGG [r11_781_TrMRF] | 5.34 ± 0.126 | 4.76 ± 0.0711 | 5 ± 0.301 |
| SAGGSAGGSAGKVVLYLPGDGTAWVLKVGDGEAVLEAEPEKVEELLEKIPGTEAVPVPGLSAGGSAGGSAGG [r11_57_TrMRF] | 2.73 ± 0.109 | -0.389 ± 0.962 | 1.78 ± 0.502 |
| SAGGSAGGSAGKVVVDFGKPALAEAFGVPLSEIENMSEEEALALAKPLVEEGVVDEVVLSSAGGSAGGSAGG [r11_80_TrMRF] | 5.29 ± 0.201 | 2.19 ± 0.176 | 3.68 ± 0.414 |
| SAGGSAGGSAGKYEVTKIEVVKNEDGSEYLRVTIKVDGKEITITIPLEDAENIKIEIKPPSAGGSAGGSAGG [r17_64_TrROS_Hall] | 11.3 ± 0.36 | 15 ± 0.151 | 14.1 ± 0.502 |
| SAGGSAGGSAGLELTVGDVPVDVYVDPDTERALAYFPLFNRVAIVDLPTGKVYVVPLDDILSAGGSAGGSAG [r3_137_TrMRF] | 5.23 ± 0.167 | 4.65 ± 0.586 | 4.82 ± 0.318 |
| SAGGSAGGSAGLIVTHPDGGVTTLRLTLTFTFEGPVGPPKTVTFEFTLTVAPNGTEVTLESAGGSAGGSAGG [r11_271_TrMRF] | 14 ± 0.669 | 21.4 ± 0.46 | 19.8 ± 1.13 |
| SAGGSAGGSAGLKLLEKELRVLTYDPETGSLSESTLRVPVLLVPPVPVPVLDPNGGLTLASAGGSAGGSAGG [r11_307_TrMRF] | -2.91 ± 1.13 | 1.7 ± 0.586 | 0.597 ± 0.46 |
| SAGGSAGGSAGLLPIEELLKKNPEPVTFMVKDNDTLYRIEITPKDGKWTIEIEPLPGMKPSAGGSAGGSAGG [r11_549_TrROS] | 3.16 ± 0.0879 | 6.24 ± 0.322 | 5.03 ± 0.18 |
| SAGGSAGGSAGLPPGDKVTISIPIVIPDGYMINSHITIDPDNGETEIEIQIYPLKDPDALSAGGSAGGSAGG [r11_695_TrROS] | 8.77 ± 0.879 | 8.85 ± 0.46 | 8.81 ± 0.586 |
| SAGGSAGGSAGLTLEVELPDGKPFPVEVLEVDPGEEDVVVIRVKVKVGDKEYEVTLVLDLSAGGSAGGSAGG [r17_536_TrMRF] | 8.13 ± 0.397 | 7.38 ± 0.335 | 7.97 ± 0.628 |
| SAGGSAGGSAGMAIGLEEILARLDPERIISVEVDEENPLVTVKLRPPSGETKTITFKLSLSAGGSAGGSAGG [r17_374_JUSTAS] | 5.05 ± 0.126 | 2.8 ± 0.46 | 4.44 ± 0.293 |
| SAGGSAGGSAGMDIDILTETEVTRYPDGTVVTTTTTRDSSGEVLSTTTTTTTVTPATPAASAGGSAGGSAGG [r11_452_JUSTAS] | 9.39 ± 0.628 | 10.9 ± 0.238 | 10.3 ± 0.289 |
| SAGGSAGGSAGMDIPLTFTAPNADGQPVKVRVEKIIPEKGYLLVRVEYPDDREETFLDPFSAGGSAGGSAGG [r11_742_TrMRF] | -0.492 ± 0.586 | -0.7 ± 0.544 | -0.279 ± 0.335 |
| SAGGSAGGSAGMEFEVLEVIPPELLAEGGEITVGLPDGERLLVRVSPDGGVKEVRLLPPESAGGSAGGSAGG [r17_2_TrMRF] | 3.39 ± 0.502 | -1.82 ± 0.92 | 0.989 ± 0.669 |
| SAGGSAGGSAGMEISTKTLPGDKYELTITLPDSKGTPITVTITFTSEEEAKKKLEEIIKKSAGGSAGGSAGG [r11_819_JUSTAS] | 5.4 ± 0.285 | 11.3 ± 0.46 | 9.49 ± 0.351 |
| SAGGSAGGSAGMEITRDKTPDGVWTVTITVPRPDGPSITVTVTGSPDGDFAPEKIAAVLASAGGSAGGSAGG [r11_759_JUSTAS] | 4.81 ± 0.159 | 0.326 ± 0.795 | 3.42 ± 0.544 |
| SAGGSAGGSAGMELKIKVTLTPPGAPVPLTLELEVESEEEARERLEKEYPDREIELEVLESAGGSAGGSAGG [r17_428_JUSTAS] | -2.23 ± 0.301 | 1.48 ± 0.368 | 0.6 ± 0.389 |
| SAGGSAGGSAGMELTVKVPPDTTPEEVKEKIEKELGLKVKSISVSSFPDGTRTVTITIGPSAGGSAGGSAGG [r17_222_JUSTAS] | 10.2 ± 1.13 | 10.2 ± 0.586 | 10.2 ± 0.879 |
| SAGGSAGGSAGMEPEIYTITTTDSNGNTSSYTFTSTEEVNAFLNDPSFQSSAVSFTVSPTSAGGSAGGSAGG [r11_1047_JUSTAS] | 10.8 ± 0.222 | 12 ± 0.197 | 11.6 ± 0.318 |
| SAGGSAGGSAGMEPIRVTVTTQDTATGTTTTTTVTVPTDVPVEAVLAALDPALVTAVTVESAGGSAGGSAGG [r11_386_JUSTAS] | 7.03 ± 0.255 | -0.72 ± 0.301 | 3.38 ± 0.46 |
| SAGGSAGGSAGMETTVLEEVPPEELAKGQTRLEKLPDGTIIERTVAPEGEVVETKTIPPKSAGGSAGGSAGG [r17_2_JUSTAS] | 8.12 ± 0.879 | 1.76 ± 0.502 | 4.57 ± 2.01 |
